Key:
[1] = target: T1, recombinant PcrV protein (rPcrV), strain PAO1, amino acid residues 1-294, C-terminal His6 (Pseudomonas aeruginosa strain PAO1); assay: SPR ProteOn, periplasmic extract on immobilised rPcrV
[2] = target: T1, recombinant PcrV protein (rPcrV), …; assay: ELISA, periplasmic extract on biotinylated rPcrV
[3] = target: Full length PcrV (aa 1-294), C-terminal c-myc and His6 tags (Pseudomonas aeruginosa strain PAO1); assay: ELISA, binder coated
[4] = target: T2, PcrV of P. aeruginosa strain PA103 (on TTSS-induced bacteria) (Pseudomonas aeruginosa strain PA103); assay: cell-based or functional assay
[5] = target: T3, PcrV fragment (aa 144-257), C-terminal c-myc and His6 tags (Pseudomonas aeruginosa); assay: ELISA, binder coated; NB = binding signal = background signal
T3 construct: also called small PcrV fragment

[6] = target: T2, PcrV of P. aeruginosa strain PA103 (on …); assay: cell-based or functional assay; remark: listed apart in the source
For cytotox assay (% inhibition), P3X63, PA103 in this document: test concentration or dose not given here.

Binder | koff [1] | binding ELISA (OD 450 nm) [2] | binding result [3] | cytotox assay (% inhibition), P3X63, PA103 [4] | binding result [5] | % inhibition, P3X63 cytotoxicity assay, MOI 3 [6] | IC50 (nM), P3X63 cytotoxicity assay, MOI 3 [6]
Nanobody 7E09 (VHH, also called 07E09) VHH: EVQLVESGGGLVQAGGSLRLSCAASGRTFSSYIMGWFRQAPGKAREFVADITWGQRPYYADSVKGRFTISRDNAKNTVYLEMNSLKPEDTAVYYCAADLGVVIREEHAYWGQGTLVTVSS | 0.0004 s⁻¹ | 2.59 OD 450 nm | binds | 16% | no binding |  | 
Nanobody 14E10 (VHH) VHH: EVQLVESGGGLVQPGGSLRLSCAASGRIFSINTMGWYRQAPGKQRELVAGVTINAITNYADSVKGRFTISRDNAKNTVWLQMNSLKPEDTAVYYCHAWARSSGSAPYSQNWGQGTQVTVSS | 0.0006 s⁻¹ |  | binds | 22% | no binding | 100% | > 3000 nM

— US20190055322A1 (Ablynx, published 2019)
